The results in this text go back to PMC4790445 (Nature structural & molecular biology, 2015).

As usually defined, the Ki is the equilibrium dissociation constant of an inhibitor or competing ligand from its target.

The target in this experiment is WT EGFR kinase (residues 696-1022) (human, UniProt P00533 696-1022). Briefly: kinase inhibition kinetics.

B1: unphosphorylated Mig6 segment 1+2 (residues 330-399) (domain or fragment, human, UniProt Q9UJM3 330-399, looked up)
chain: SRTPSPKSLPSYLNGVMPPTQSFAPDPKYVSSKALQRQNSEGSASKVPCILPIIENGKKVSSTHYYLLPE
B1 yielded a Ki of 10 to 20 nM.
